{"source": "the nanobody polyreactivity screen of Harvey et al. (2022)"}
{"assay": "yeast display, Sf9 membrane polyspecificity reagent, FACS + sequencing; frameworks hold sequencing errors", "how_it_was_run": "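Using colony PCR, genes from sorted yeast display clones were amplified, then sequenced on MiSeq at 2 × 250 and filtered by CDR length. The clones had been stained with 10% biotinylated, detergent-solubilized Sf9 membrane reagent for 1 hour at 4 °C and sorted by FACS into low and high (top ~1%) gates on anti-HA and streptavidin fluorescence. Polyreactivity labels come from the gate of origin.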"}
{"sequence": "QVQRVESGGGLVQAGGSLRLSCDASGFTFAFYAMGWYRQAPGKERELVAAITGSGGSTYYADSVKGRFTISRDNAKNTVYLQMNRLKPEDTAVYYCNTYHQFSYDYWGQGTQVTVSS", "polyreactivity (PSR sort gate)": "high polyreactivity"}
{"sequence": "QVQLVESGGGLVQAGGSLRLSCAASGSIFWSYAMGWYRQAPGKERELVAAITYSGTSTYYADSVKGRFTISRDNAKNTVYLQMNSLKPEDTAVSYCAASPYSRSRYDYWGQGTQVTVSS", "polyreactivity (PSR sort gate)": "low polyreactivity"}
{"sequence": "QVQLVESGGGLVQAGGSLRLSCAASGRTFTPYDMGWYRPAPGKERELVAAITWRGGSTYYADSVKGRFTISRDNAKNTVYLQMNSLKPEDTAVYYCAKDRWTYAFRVGYGYWGQGTQVTVSS", "polyreactivity (PSR sort gate)": "high polyreactivity"}
{"sequence": "QVQLVESGGGLVQAGGSLRLSCAASGSTFYYYAMGWYRQAPGKERELVAVISWGGGSTYYADSVKGRFTISRDNAKNTVYLQMNSLKPEDTAVYYCAAVYDEYQTSHEYDYWGQGTQVTVSS", "polyreactivity (PSR sort gate)": "low polyreactivity"}
{"sequence": "QDQLVESGGELVQAGGSLRLSCASSGRTFSANGMGWYRQAPAKERELVAAITRSGGITYYADSVKGRFTISRVNAKNTVYLQMNSLKPEDTAVYYCAASVYSLSRRSWMDYWGQGTQVTVSS", "polyreactivity (PSR sort gate)": "low polyreactivity"}
{"sequence": "QVQLVESGAGLVQAGGSLRLSCAASGSTFVINAMGWYRQPPGKEREFVADIDYRGGSTNYADSVKGRFTISHDNAKNTFYLQMNSLKPEDTAVYYCAAARVTIRSSHWSVDYWGQGTQVTVSS", "polyreactivity (PSR sort gate)": "low polyreactivity"}
{"sequence": "QVQLVESGGGLVQAGGSLRLSCAASGLTFQLYTMGWYRQAPGKERELVAAISRSGTRTYYADSVKGRFTISRDNAKNTVYLQMNSLKPEDTAVYYCAARTDGYRNNYWGQGTQVTVSS", "polyreactivity (PSR sort gate)": "high polyreactivity"}
{"sequence": "QVQLVESGGGLVQAGGSLRLICAASGSIFVYNAMGWYRQAPGKERELVAAISQRGGSTYYADSVKGRFTISRDNAKNTVYLQMNSLKPEDTAVYYCAAGPGDSGDDYWGQGTQVTVSS", "polyreactivity (PSR sort gate)": "low polyreactivity"}
{"sequence": "QVQLVESGGGLVQAGGSLRLSCAASGFTFGSYAMGWYRQAPGKERELVAVITRSGRTNYADSVKGRFTISRDNAKNTVYLLMNSLKPEDTAVYYCNADDVDDEVSPDLTEMDYWGQGTQVTVSS", "polyreactivity (PSR sort gate)": "low polyreactivity"}
{"sequence": "QVQLVETGGGLVQAGGTLRLSCAASGRIFLTNAMGWYRQAPGKERELVATITASGGTTYYADSVKGRFTISRDNAKITVYLQMNSLKPDDTAVYYCAKRYYLRGFGRYYYCGQGTQVTVSS", "polyreactivity (PSR sort gate)": "high polyreactivity"}
{"sequence": "QEKHVESGGGLVQAGGSLLLSCAASGLTFYHNAMGWYRQAPGKERELVAAISSGGTTNYADSVKGRFTISRDNAKNTVYLQMNSLTPEDTAVYYCAARGWGPTRAYDYWGQGTQVTLSS", "polyreactivity (PSR sort gate)": "high polyreactivity"}
{"sequence": "QVELVYSGGGLVQAGGSLRLSCPASGSTFWYYAMGWSRQPPGKERELVAAINSGGSTFYADSVKGRFTISRDNAKNTVYLQMNSLKPEDTAVYYCAKRSYDYRRYYWGQGTQVTVSS", "polyreactivity (PSR sort gate)": "high polyreactivity"}
{"sequence": "QVQLVESGGGLVQAGGSLRLSCAASGRTFRPYAMGWYRQAPGKERELVAAISSGGSTYYADSVKGRFTISRDNAKNTVYLQMNSLKPEDTAVYYCNAVGLWARDYGYWGQGTQVTVSS", "polyreactivity (PSR sort gate)": "high polyreactivity"}
{"sequence": "QVQLEESGGGLVQAGGSLRLSCAASVFPYYAMRWYRQATGKERELVAAITWSGADTYYADSVKGRFTISRDNAKNTVYLQMNSLKPEDTAVYYCAAEYSPIRDYEYWGQGTQVTVSS", "polyreactivity (PSR sort gate)": "low polyreactivity"}
{"sequence": "QVQLQESGGGLVQAGGSLRLSCPSSGNISIKLQMGWYRQAPGKERELVATINLGAITYYADSVKGLITISRDNAKNTVYLQVNSLKPEDTAVYYCNAQSRTWRKLGYWGQGTQVTVSS", "polyreactivity (PSR sort gate)": "low polyreactivity"}
{"sequence": "QVQLVESGGGLVQAGGSLRLSCAASGRTFGGNAIGWYRQAPGKERELVAAISSGARTNYADSVKGRFTISRDNAKNTVYLQMNSLKPEDNAVYYCAAGYPYSYRDYYYWVQGTQVTVSS", "polyreactivity (PSR sort gate)": "high polyreactivity"}
{"sequence": "QVQLVESGGGLVQAGGSLRLSCAASGFTFWYYAMGWYRQAPGKERELVASISSIGGSTYYADSVKGRFTISRDNAKNTVYLQMNSLKPEDTAVYYCAADRSSNGLMPGSKNEYWGQGTEVTVSS", "polyreactivity (PSR sort gate)": "high polyreactivity"}
{"sequence": "QVQLVESGGGLVQAGGSLRLSCAASGSTIDIYAMGWYRQAPGKERELVAAISNSGDTYYADSVKGRFTISRDNAKNTVYLQMNSLKPEDTAVYYCAAPAAGDEYDYWGQGTQVTVSS", "polyreactivity (PSR sort gate)": "high polyreactivity"}
{"sequence": "QVQLVESGGGLVQAGGSLRLSCAASGRIFYTYAMGWYRQAPGKERELVATISGRGGSTYYADSVKGRFTISRDNAKNTVYLLMNSLKPEDTAVYYCAAVSYTQSHAYWGTGYRYGYWGQGTQVTVSS", "polyreactivity (PSR sort gate)": "high polyreactivity"}
{"sequence": "QVQLVESGGGLVQAGGSLRLSCAASGSTFRRYAMGWYRQAPGKERELVAAITSGGRTNYADSVKGRFTISRDNAKNTVYLQMNSLKPEDTAVYYCAARYIRGSYGMGYWGQGTQVTVSS", "polyreactivity (PSR sort gate)": "high polyreactivity"}
{"sequence": "QVQLVESGGGLVQAGGSLRLSCAASGITFDKNTMGWYRQEPGKVRELVAAISARGGSTYYADSVKGRFTISRDNSKNTVYLQMNSLKPEDTAVYYCAARSGYGPYRMDYWGQGTQVTVSS", "polyreactivity (PSR sort gate)": "high polyreactivity"}
{"sequence": "QVQLVESGGGLVQAGGSLRLSCAASGSIFGYYAMGWSRQAPGKEREVVAAISASGGSTYYADSVKGRFTISRDTAKNTVYLQMNSLKPEDTAVYYCAAVRSVTYIWARYPYGLEYWGQGTQVTVSS", "polyreactivity (PSR sort gate)": "high polyreactivity"}
{"sequence": "QVQLVESGGGLVQAGGSLRLSCAASGSIFSTYAMGWSRQAPGKERELVAAITTSGGRTYYADSVKGRFTISRDNAKNTVYLQMNSLKPEDTAVYYCNAVRGGRYGLDYWGQGTQVTVSS", "polyreactivity (PSR sort gate)": "high polyreactivity"}
{"sequence": "QVQLVESGGGLVQAGGSLRLSCAASGRTFLRYTMGWYRQAPGKERELVASITRGGSTYYADSVKGRFTISRDNAKNTVYLQMNSLKPEDTAVYYCAAGKALLSRYDYWGQGTQVTVSS", "polyreactivity (PSR sort gate)": "high polyreactivity"}
{"sequence": "QVQLVESGGGLVQAGGSLRLSCAASGSTFRYNAMGWYRQAPGKERELVAAISKSGGSTYYADSVKGRFTISRDNAKNTVYLQMNSLKPEDTAVYYCATSYPYRIYRSSYDYWGQGTQVTVSS", "polyreactivity (PSR sort gate)": "high polyreactivity"}
{"sequence": "QVQLVESGGGLVQAGGSLRLSCAASGRTFTHNVMGWYRQAPGKERELVAGISSTGGSTYYADSVKGRFTISRDNAKNTVYLQMNSLKPEDTAVYYCAVIGYHYSAISPPSQTRQGYDYWGQGTQVTVSS", "polyreactivity (PSR sort gate)": "low polyreactivity"}
{"sequence": "QVQLVESGGGLVQAGGSLRLSCAASGSTFTIYAMGWYRQAPGKEREFVAAIDEDDGSTYYADSVKGRFTISRDNAKNTVYLQMNSLKPEDTAVYYCNADDIWGYAFDYWGQGTQVTVSS", "polyreactivity (PSR sort gate)": "low polyreactivity"}
{"sequence": "QVQLLESGGGLVQAGGSLRLSCAASGFTFWYYAMVWYRQAPGKERELVAAITRGGSTNYADSVKGRFTISRDNAKNTVYLQMNSLKPEDTAVYYCAATIYDYNRAGKYYYWGQGTQVTVSS", "polyreactivity (PSR sort gate)": "high polyreactivity"}
{"sequence": "QVQLVESGGGLVQAGGSLRISCAASGNSFVSNVMGWYREAPGKERELVAAISSGGRTYYADSVKGRFTISRDNAKNTVYLQMNSLKPEDTAVYYCAASYKSKYLGGGEYWGQGTQVTLSS", "polyreactivity (PSR sort gate)": "high polyreactivity"}
{"sequence": "EVQQVESGGGLVQPGGSLRLSCAASGYIYSRYRMGWCRQAPGKGREFVAAISGGSSTNYADSVKGRFTISRDNSKITVYLQMKSLRAEDTAVYYCAAYMIDSDPRVFWGQGTQVNVSS", "polyreactivity (PSR sort gate)": "low polyreactivity"}
{"sequence": "QDQIVESGGGLVQAGGSLRLSCASYGSTFDRYAMGWYRQAQGKERELVAVITQSGSSTYYADSVKGRFTISRDNAKNTVYLQMKSLKPEDTAVYYCAARYQGSRGQEYYYWGQGTQVTVSS", "polyreactivity (PSR sort gate)": "high polyreactivity"}
{"sequence": "QVQLVESGGGLVQAGGSLRLSCASTGRIFDRNAMGWYRQAPGKVRELVAAISRRGGSTYYADSVKGRFTISRDNAKNNVYLQMNILKPEDTAVYYCNSGYSTRLHDYWGQGTQVTVSS", "polyreactivity (PSR sort gate)": "high polyreactivity"}
{"sequence": "QVQLVESGGGLVQAGGSLRLSCAASGSTFFSKAMGWSRQEPGKERELVAAISRSGATTSYADSVKGRFTISRDNAKNTVYLQMNSLKPEDTAVYYCAVGRRYYQDYDYSGQGTQVTVSS", "polyreactivity (PSR sort gate)": "high polyreactivity"}
{"sequence": "QVQLVESGGGLVQAGGSLRLSCAASGLIFGRNARGWYRQAPGKERELVAVISKRGGSTYYADSVKGRFTISRDNAKNTVYLQMNSLKPADTAVYYCAADYGSTGNYWGQGTQVTVSS", "polyreactivity (PSR sort gate)": "high polyreactivity"}
{"sequence": "QVQLVESGGGLVQAGGSLRLRCAASGSTFYYYAMGWYRQAPGKERELVAANTLRGTSTYYADSVKGRFTISRDNAKNTVYLQMNRLKPEDTAVYYCAVETYYSIFDIYDYWGQGTQVTVSS", "polyreactivity (PSR sort gate)": "low polyreactivity"}
{"sequence": "HVQLVESGGGLVQAGGSLRLSCAASGRSFRYNAMGWYRQAPGKERELVAAITRSGGSTDYADSVKGRFTISRDNAKNTVNLQMNSLKPEDTAVYYCAKLQNGQWSTSRVPGDYQYNYWGQGTQVTVSS", "polyreactivity (PSR sort gate)": "high polyreactivity"}
{"sequence": "QVQLVESGGGLVQAGVSLRLSCAASGSTVGYNAMGWYRQAPGKERELVAAISGNGGSTYADSVKGRFTISRDNAKNTVYLQMNSLKPEDTAVYFCAAVQYGYGLASDSIFDYWGQGTQVTVSS", "polyreactivity (PSR sort gate)": "high polyreactivity"}
{"sequence": "QVQLVESGGGLVQAGGSLRLSCAASGSIFPYYAMGWYRQAPGKERELVAAITYIGGDTYYADSVKGRFTISRDNAKNTVYLQMNSLKPEDTAVYYCAAELSWRQYDYEYWGQGTQVTVSS", "polyreactivity (PSR sort gate)": "low polyreactivity"}
{"sequence": "QVQLVESGGGLDQAGGRLPLTWAASGFTFWKYAMGLYRQAPGKERELVAANSVSGGRTYYADSVKGRFTISRDNAKNTVSLQMNRLKPEDTAVYFCNATPWRPYVGGEYWGQGTQVTVSS", "polyreactivity (PSR sort gate)": "high polyreactivity"}
{"sequence": "QVQLVESGGGLVQAGGSLRLSCAASGITFAGYARGWYRQAPGKERELVAAISGSGGSTYYADSVKGRFTISRDNAKNTVYLQMNSLKPEDTAVYYCNADVVPQYYSWGQGTQVTVSS", "polyreactivity (PSR sort gate)": "low polyreactivity"}
{"sequence": "QVQLVESGGGLVQAGGSLRLSCAASGRTFQLNAMGCYRQAPGKERELVAAISTRGGSTYYADSVKGRFTISRDNAKNTVYLQMNSLKPEDTAVYYCAKDPSFTRGYKDGGGYDYWGQGTQVTVSS", "polyreactivity (PSR sort gate)": "high polyreactivity"}
{"sequence": "QVQLVESGGGLVQAGGSLRLSCAASGSIFTLYAMGWYRQAPGKEREFVAGISFSTGRTYYADSVKGRFSISRDNAKNTVYLQMNSLKPEDTAVYYCAAYVSHYWYGVYRDGYWGQGTQVTVSS", "polyreactivity (PSR sort gate)": "low polyreactivity"}
{"sequence": "QVQLVESGGGLVQAGGSLRVSCAASGLTFGDYTMGWYRQAPGKERELVAAISTAGGSTYYADSVKGRFTISREHANNTVYLHMNSLKPEDTAVYYCNARRTHTRSHYYYWGQGTQVTVSS", "polyreactivity (PSR sort gate)": "high polyreactivity"}
